B1: HDV Ribozyme (parent)
chain: GGCCGGCAUGGUCCCAGCCUCCUCGCUGGCGCCGGCUGGGCAACAUUCCGAGGGGACCGUCCCCUCGGUAAUGGCGAAUGGGACCCA

The series covers variants of B1. The series can be described thus: self-cleavage, relative activity (ratio to wild type); higher = more cleavage; co-transcriptional.
GGCCGGCAUGGUCCCAGCCUCCUCGCUGGCGCCGGCUGGCCAACAUUCCGAGGGGACCGUCCCCUCGGUAAUGGCGAAUGGGACCUA [G40C C86U]: the self-cleavage was found to be 0.372.

On to GGCCGGCAUGGUCCCAGCCUCCUCGCUGGCGCCGGCUGGCCAACAUUCCGAGGGGACCGUCCCCUCGGUAAGGGCGAAUGGGACCCA [G40C U72G], for which the self-cleavage was found to be 0.158. For the variant GGCCGGCAUGGUCCCAGCCUCCUCGCUGGCGCCGGCUGGUCAACAUUCCGAGGGGAUCGUCCCCUCGGUAAUGGCGAAUGGGACCCA [G40U C57U], the self-cleavage worked out at 0.712. To GGCCGGCAUGGUCCCAGCCUCCUCGCUGGCGCCGGCUGGCCAACAUUCCGAGGGGACCGUCCCCUCGGUAAUGGCGAAUGGGAACCA [G40C C84A] belongs 0.0831.

Regarding GGCCGGCAUGGUCCCAGCCUCCUCGCUGGCGCCGGCUGGCCAACAUUCCGAGGGGACCCUCCCCUCGGUAAUGGCGAAUGGGACCCA [G40C G59C], the self-cleavage stood at 0.229. To GGCCGGCAUGGUCCCAGCCUCCUCGCUGGCGCCGGCUGGUCAACAUUCCGAGGGGACCGUCCCCUCGGUAAUGGCGAAUCGGACCCA [G40U G80C] belongs 0.0692. Consider GGCCGGCAUGGUCCCAGCCUCCUCGCUGGCGCCGGCUGGCCAACAUUCCGAGGGGACCGUGCCCUCGGUAAUGGCGAAUGGGACCCA [G40C C61G], for which the self-cleavage is 0.241. To GGCCGGCAUGGUCCCAGCCUCCUCGCUGGCGCCGGCUGGCCAACAUUCCGAGGGUACCGUCCCCUCGGUAAUGGCGAAUGGGACCCA [G40C G55U] belongs 0.205. The value for GGCCGGCAUGGUCCCAGCCUCCUCGCUGGCGCCGGCUGGGAAACAUUCCGUGGGGACCGUCCCCUCGGUAAUGGCGAAUGGGACCCA [C41A A51U] was 0.981; that for GGCCGGCAUGGUCCCAGCCUCCUCGCUGGCGCCGGCUGGUCAACCUUCCGAGGGGACCGUCCCCUCGGUAAUGGCGAAUGGGACCCA [G40U A45C] was 0.295. The value for GGCCGGCAUGGUCCCAGCCUCCUCGCUGGCGCCGGCUGGCCAACAUUCCGAGGGGACCGUCCCCUCGGUAAUGACGAAUGGGACCCA [G40C G74A] was 0.0978. As for GGCCGGCAUGGUCCCAGCCUCCUCGCUGGCGCCGGCUGGUCAACAUUCCGAAGGGACCGUCCCCUCGGUAAUGGCGAAUGGGACCCA [G40U G52A], the self-cleavage was 0.513.

GGCCGGCAUGGUCCCAGCCUCCUCGCUGGCGCCGGCUGGUCAACAUUCCGACGGGACCGUCCCCUCGGUAAUGGCGAAUGGGACCCA [G40U G52C]: the self-cleavage is 0.891. To GGCCGGCAUGGUCCCAGCCUCCUCGCUGGCGCCGGCUGGGAAACAUUCCGAGGGGCCCGUCCCCUCGGUAAUGGCGAAUGGGACCCA [C41A A56C] belongs 0.937; to GGCCGGCAUGGUCCCAGCCUCCUCGCUGGCGCCGGCUGGUCAACAUUCCGAGGGGACCGUCCCCUCGGUAAUGGCGUAUGGGACCCA [G40U A77U], 0.212; to GGCCGGCAUGGUCCCAGCCUCCUCGCUGGCGCCGGCUGGUCAACAUUCCGAGGGGACCGUCCCCUCGGUAAUGGCGCAUGGGACCCA [G40U A77C], 0.145. Consider GGCCGGCAUGGUCCCAGCCUCCUCGCUGGCGCCGGCUGGCCAAAAUUCCGAGGGGACCGUCCCCUCGGUAAUGGCGAAUGGGACCCA [G40C C44A], for which the self-cleavage was found to be 0.0468. The value for GGCCGGCAUGGUCCCAGCCUCCUCGCUGGCGCCGGCUGGCCAAUAUUCCGAGGGGACCGUCCCCUCGGUAAUGGCGAAUGGGACCCA [G40C C44U] was 0.0627.

Take GGCCGGCAUGGUCCCAGCCUCCUCGCUGGCGCCGGCUGGCCAAGAUUCCGAGGGGACCGUCCCCUCGGUAAUGGCGAAUGGGACCCA [G40C C44G]: the self-cleavage came to 0.106.

On to GGCCGGCAUGGUCCCAGCCUCCUCGCUGGCGCCGGCUGGCCAACAUUUCGAGGGGACCGUCCCCUCGGUAAUGGCGAAUGGGACCCA [G40C C48U], for which the self-cleavage stood at 0.326. Consider GGCCGGCAUGGUCCCAGCCUCCUCGCUGGCGCCGGCUGGUCAACAUUCCGAGGGGACCGUCCCCUCGGUAAGGGCGAAUGGGACCCA [G40U U72G], for which the self-cleavage amounted to 0.23.

For GGCCGGCAUGGUCCCAGCCUCCUCGCUGGCGCCGGCUGGGAAGCAUUCCGAGGGGACCGUCCCCUCGGUAAUGGCGAAUGGGACCCA [C41A A43G], the self-cleavage amounted to 0.808. To GGCCGGCAUGGUCCCAGCCUCCUCGCUGGCGCCGGCUGGCCAACAUUCCGAGGGGACCGUCCCCUCGGUAAUGGCGAAUGUGACCCA [G40C G81U] belongs 0.162. The value for GGCCGGCAUGGUCCCAGCCUCCUCGCUGGCGCCGGCUGGUCAACAUUCCGAGGGGACCGUCCCCUCGGUAAUGGCGAAUGGGUCCCA [G40U A83U] was 0.0936; that for GGCCGGCAUGGUCCCAGCCUCCUCGCUGGCGCCGGCUGGUCAACAUUCCGAGCGGACCGUCCCCUCGGUAAUGGCGAAUGGGACCCA [G40U G53C] was 0.519. To GGCCGGCAUGGUCCCAGCCUCCUCGCUGGCGCCGGCUGGCCAACAUUCCGAGGGGACCGUCCCCUCGGUAAUGGCGAACGGGACCCA [G40C U79C] belongs 0.0509; to GGCCGGCAUGGUCCCAGCCUCCUCGCUGGCGCCGGCUGGCCAACAUUCCGAGGGGACCGUCCGCUCGGUAAUGGCGAAUGGGACCCA [G40C C63G], 0.138. As to GGCCGGCAUGGUCCCAGCCUCCUCGCUGGCGCCGGCUGGUCAACAUUCCGAGGGUACCGUCCCCUCGGUAAUGGCGAAUGGGACCCA [G40U G55U], the self-cleavage came to 0.621. The value for GGCCGGCAUGGUCCCAGCCUCCUCGCUGGCGCCGGCUGGCCAACAUUCCGAGGGGACCGUCCCCUCGGUAAUGGUGAAUGGGACCCA [G40C C75U] was 0.0652. The value for GGCCGGCAUGGUCCCAGCCUCCUCGCUGGCGCCGGCUGGUCAACAUUCAGAGGGGACCGUCCCCUCGGUAAUGGCGAAUGGGACCCA [G40U C49A] was 0.787. To GGCCGGCAUGGUCCCAGCCUCCUCGCUGGCGCCGGCUGGUCAACAUUCUGAGGGGACCGUCCCCUCGGUAAUGGCGAAUGGGACCCA [G40U C49U] belongs 0.817.

As to GGCCGGCAUGGUCCCAGCCUCCUCGCUGGCGCCGGCUGGUCAACAUUCCGAGGGGACCGUCCCCUCGGUAAUUGCGAAUGGGACCCA [G40U G73U], the self-cleavage was determined as 0.424.
